Assay results taken from patent publication US20110014656A1 (ZymoGenetics, published 2011).
Values joined by “and” are separate entries in the source; they are usually repeats but may differ in a detail not shown here. Equal values may be shown once.

Columns and labels:
[1] = target: T1, human IL-17RC, x1 splice variant, on transfected cells (human, UniProt Q8NAC3 21-791); assay: cell-based or functional assay
T1 sequence: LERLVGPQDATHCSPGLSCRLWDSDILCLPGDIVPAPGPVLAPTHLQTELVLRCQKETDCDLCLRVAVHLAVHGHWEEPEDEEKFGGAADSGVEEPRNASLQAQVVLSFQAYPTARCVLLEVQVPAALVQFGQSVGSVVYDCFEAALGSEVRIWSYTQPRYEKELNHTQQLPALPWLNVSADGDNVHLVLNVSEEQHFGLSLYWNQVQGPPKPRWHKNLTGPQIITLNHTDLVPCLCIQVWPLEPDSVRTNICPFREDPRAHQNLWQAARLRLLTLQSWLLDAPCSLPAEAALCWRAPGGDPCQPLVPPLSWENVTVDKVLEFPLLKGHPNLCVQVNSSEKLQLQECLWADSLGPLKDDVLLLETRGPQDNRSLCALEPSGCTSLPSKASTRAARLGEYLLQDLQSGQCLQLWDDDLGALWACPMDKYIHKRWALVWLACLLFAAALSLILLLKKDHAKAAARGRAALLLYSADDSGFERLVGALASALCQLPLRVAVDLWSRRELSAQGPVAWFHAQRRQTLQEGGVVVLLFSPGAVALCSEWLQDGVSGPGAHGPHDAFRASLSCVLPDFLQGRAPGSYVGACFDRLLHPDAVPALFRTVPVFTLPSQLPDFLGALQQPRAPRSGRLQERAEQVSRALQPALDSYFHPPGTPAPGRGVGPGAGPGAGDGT

murine IL-17RA-Ig = target: T2, murine IL-17RA-Ig (mouse, UniProt Q60943 32-322); assay: Biacore, soluble receptor captured on chip, cytokine as analyte
T2 construct: also called mL-17RA-Ig; mIL-17RA-Fc; not shown: Ig/Fc part
T2 sequence (looked up): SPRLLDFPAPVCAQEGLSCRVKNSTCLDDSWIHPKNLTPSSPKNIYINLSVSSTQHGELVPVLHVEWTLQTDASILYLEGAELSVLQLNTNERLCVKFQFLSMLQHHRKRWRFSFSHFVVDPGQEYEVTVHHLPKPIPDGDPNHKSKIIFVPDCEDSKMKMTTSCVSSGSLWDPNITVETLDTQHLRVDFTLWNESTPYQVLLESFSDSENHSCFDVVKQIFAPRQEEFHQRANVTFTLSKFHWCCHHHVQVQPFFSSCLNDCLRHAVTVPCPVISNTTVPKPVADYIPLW

[2] = target: T1, human IL-17RC, x1 splice variant, on …; assay: FACS, biotinylated cytokine on transiently transfected 293F cells
Text: (§1) However, the other splice variants tested either included or excluded hIL-17RC exon 12. These variants were designated hIL-17RCx1 (identical in exon composition to mouse x1 above), hIL-17RCx4 (identical in exon composition to mouse x4 above), hIL-17RCx2, and hIL-17RCx7.

[3] = target: T3, human IL-17RC, x4 splice variant, on transfected cells (human, UniProt Q8NAC3 21-791); assay: as above
T3 construct: Expressed on 293F, BHK or NIH3T3 cells; also called hIL-17RCx4; hIL-17RCX4
T3 sequence: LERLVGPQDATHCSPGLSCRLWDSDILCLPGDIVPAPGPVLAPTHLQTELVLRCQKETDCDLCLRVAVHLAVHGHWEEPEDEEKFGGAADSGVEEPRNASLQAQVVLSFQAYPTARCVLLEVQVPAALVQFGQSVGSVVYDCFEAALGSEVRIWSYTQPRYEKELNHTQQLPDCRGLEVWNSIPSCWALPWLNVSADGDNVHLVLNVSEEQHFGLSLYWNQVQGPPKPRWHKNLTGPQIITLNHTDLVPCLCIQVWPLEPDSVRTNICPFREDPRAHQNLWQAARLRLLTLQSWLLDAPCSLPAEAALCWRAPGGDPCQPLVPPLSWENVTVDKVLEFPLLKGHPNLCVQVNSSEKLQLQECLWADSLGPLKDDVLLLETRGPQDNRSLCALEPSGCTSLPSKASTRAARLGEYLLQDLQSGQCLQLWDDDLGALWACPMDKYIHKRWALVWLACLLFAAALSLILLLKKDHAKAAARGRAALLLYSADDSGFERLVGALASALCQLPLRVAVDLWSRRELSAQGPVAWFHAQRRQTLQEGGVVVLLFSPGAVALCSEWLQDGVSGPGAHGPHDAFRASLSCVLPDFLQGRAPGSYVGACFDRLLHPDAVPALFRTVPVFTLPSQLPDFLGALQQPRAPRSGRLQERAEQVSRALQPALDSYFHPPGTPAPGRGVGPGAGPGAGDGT
Text: as §1

[4] = target: T4, IL17A-CH6/IL17F-CEE 2 chain heterodimer (human, UniProt Q16552 24-155; Q96PD4 31-163); assay: cell-based or functional assay
T4 sequence 1: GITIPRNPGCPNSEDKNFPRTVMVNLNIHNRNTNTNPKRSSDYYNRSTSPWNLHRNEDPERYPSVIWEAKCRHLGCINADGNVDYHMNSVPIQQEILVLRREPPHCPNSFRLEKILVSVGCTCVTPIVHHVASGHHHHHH
T4 sequence 2: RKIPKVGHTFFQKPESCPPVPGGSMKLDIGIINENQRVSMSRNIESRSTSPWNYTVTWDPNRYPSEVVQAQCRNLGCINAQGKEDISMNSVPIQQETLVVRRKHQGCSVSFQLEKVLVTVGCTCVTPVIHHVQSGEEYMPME

[5] = target: single chain human IL17A:IL17F heterodimer (human); assay: cell-based or functional assay
human IL-17F [6] = target: T5, human IL-17F (human, UniProt Q96PD4 31-163); assay: cell-based or functional assay
T5 sequence: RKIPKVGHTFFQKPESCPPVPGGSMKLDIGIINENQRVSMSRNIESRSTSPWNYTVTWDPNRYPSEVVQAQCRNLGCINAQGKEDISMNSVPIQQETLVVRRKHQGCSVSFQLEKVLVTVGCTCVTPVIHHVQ

human IL-17A [7] = target: T6, human IL-17A (human, UniProt Q16552 24-155); assay: cell-based or functional assay
T6 sequence: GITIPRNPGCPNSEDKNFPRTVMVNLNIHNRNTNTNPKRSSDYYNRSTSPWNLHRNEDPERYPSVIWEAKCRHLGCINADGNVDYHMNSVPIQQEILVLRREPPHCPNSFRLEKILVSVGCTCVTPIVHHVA

human IL-17F [8] = target: T5, human IL-17F; assay: Biacore, summary of Table 11
Text: (§2) The protocol was optimized to capture receptor at a theoretical binding max. before injecting a concentration series of each ligand to observe association and dissociation. […] The surface was regenerated with 2×30 sec. injections of pH 1.75 glycine between cycles.

human IL-17A [9] = target: T6, human IL-17A; assay: Biacore, summary of Table 11
Text: as §2

[10] = target: T4, IL17A-CH6/IL17F-CEE 2 chain heterodimer; assay: Biacore T100, receptor captured by anti-human IgG Fc-gamma on CM4 chip; KA1 of the bivalent analyte model
Method: (§3) The binding kinetics and affinity study was performed on a Biacore T100™ system (GE Healthcare, Piscataway, N.J.). Methods for the Biacore T100™ were programmed using Biacore T100™ Control Software, v 1.1.1. […] The capture antibody was covalently immobilized to a CM4 sensor chip using a mixture of 0.4 M EDC [N-ethyl-N′-(3-[…])carbodiimide] and 0.1 M NHS (N-hydroxysuccinimide) to a density of approximately 4000 RU. […] Capture of the receptor to the immobilized surface was performed at a flow rate of 10 μL/min. The Biacore instrument measures the mass of protein bound to the sensor chip surface, and thus, capture of the soluble receptor was verified for each analysis cycle.
(§4) Between analysis cycles, the flow cell was washed with 20 mM hydrochloric acid to regenerate the surface. […] Data was compiled using the Biacore T100™ Evaluation software (version 1.1.1). Data was processed by subtracting reference flow cell and blank injections. Baseline stability was assessed to ensure that the regeneration step provided a consistent binding surface throughout the sequence of injections. Duplicate injection curves were checked for reproducibility. […] If only one portion of the heterodimer binds to the receptor, a simple 1:1 binding model would be appropriate and the curves should fit well to this model. […]

[11] = target: T4, IL17A-CH6/IL17F-CEE 2 chain heterodimer; assay: Biacore T100, receptor captured by anti-human IgG Fc-gamma on CM4 chip; KD1 of the bivalent analyte model
Method: as §3, §4

[12] = target: T4, IL17A-CH6/IL17F-CEE 2 chain heterodimer; assay: Biacore T100, receptor captured by anti-human IgG Fc-gamma on CM4 chip; ka1 of the bivalent analyte model
Method: as §3, §4

human IL-17F [13] = target: T5, human IL-17F; assay: Biacore, receptor captured by anti-human IgG Fc on CM5 chip, ligand as analyte
Text: as §2

human IL-17A [14] = target: T6, human IL-17A; assay: as above
Text: as §2

human IL-17F [15] = target: T5, human IL-17F; assay: cell-based or functional assay; remark: listed apart in the source
human IL-17A [16] = target: T6, human IL-17A; assay: cell-based or functional assay; remark: listed apart in the source
[17] = target: T4, IL17A-CH6/IL17F-CEE 2 chain heterodimer; assay: Biacore T100, receptor captured by anti-human IgG Fc-gamma on CM4 chip; kd1 of the bivalent analyte model
Method: as §3, §4

B1: murine IL-17A (ligand)
chain: AAIIPQSSACPNTEAKDFLQNVKVNLKVFNSLGAKVSSRRPSDYLNRSTSPWTLHRNEDPDRYPSVIWEAQCRHQRCVNAEGKLDHHMNSVLIQQEILVLKREPESCPFTFRVEKMLVGVGCTCVASIVRQAA
notes: also called mIL-17A; mIL17A
B1 was tested, and the “EC50, luciferase in nih3t3/kz142.8/hcytor14x1 cells” value [1] was ~0.004 µg/mL, the Kd (murine IL-17RA-Ig) was 0.069 nM and 0.072 nM and the binding result [2] was “no binding”. B1: no binding [3].

B2: Variant 1454, soluble IL-17RC/IL-17RA polypeptide fused to Fc5 (Fc fusion)
chain: LRLLDHRALVCSQPGLNCTVKNSTCLDDSWIHPRNLTPSSPKDLQIQLHFAHTQQGDLFPVAHIEWTLQTDASILYLEGAELSVLQLNTNERLCVRFEFLSKLRHHHRRWRFTFSHFVVDPDQEYEVTVHHLPKPIPDGDPNHQSKNFLVPDCEHARMKVTTPCMSSALPWLNVSADGDNVHLVLNVSEEQHFGLSLYWNQVQGPPKPRWHKNLTGPQIITLNHTDLVPCLCIQVWPLEPDSVRTNICPFREDPRAHQNLWQAARLRLLTLQSWLLDAPCSLPAEAALCWRAPGGDPCQPLVPPLSWENVTVDKVLEFPLLKGHPNLCVQVNSSEKLQLQECLWADSLGPLKDDVLLLETRGPQDNRSLCALEPSGCTSLPSKASTRAARLGEYLLQDLQSGQCLQLWDDDLGALWACPMDKYIHKEPKSSDKTHTCPPCPAPEAEGAPSVFLFPPKPKDTLMISRTPEVTCVVVDVSHEDPEVKFNWYVDGVEVHNAKTKPREEQYNSTYRVVSVLTVLHQDWLNGKEYKCKVSNKALPSSIEKTISKAKGQPREPQVYTLPPSRDELTKNQVSLTCLVKGFYPSDIAVEWESNGQPENNYKTTPPVLDSDGSFFLYSKLTVDKSRWQQGNVFSCSVMHEALHNHYTQKSLSLSPGK
notes: also called IL-17RA/RC-Fc5; IL17RA/RC 1454
With B2 the “IC50, NIH-3T3/KZ170 luciferase reporter neutralization assay” value [4] was 3.17 nM, the “IC50, NIH-3T3/KZ170 luciferase reporter neutralization assay” value [5] was 13.3 nM and the “IC50, NIH-3T3/KZ170 luciferase reporter neutralization assay” value (human IL-17F [6]) was 0.874 nM. For the same binder, the “IC50, luciferase in hIL-17RA/NIH3T3/KZ142.8 cells, 20 ng/ml IL-17F” value (human IL-17F [6]) was 0.48 µg/mL, the “IC50, luciferase in hIL-17RCX4/NIH3T3/KZ142.8 cells, 1 ng/ml IL-17F” value (human IL-17F [6]) was 0.8 µg/mL and the “IC50, NIH-3T3/KZ170 luciferase reporter neutralization assay” value (human IL-17A [7]) was 0.167 nM. For the same binder, the “IC50, luciferase in hIL-17RA/NIH3T3/KZ142.8 cells, 0.5 ng/ml IL-17A” value (human IL-17A [7]) was 0.001 µg/mL, the Kd (human IL-17F [8]) was ~0.14 nM and the Kd (human IL-17A [9]) was ~0.04 nM. For the same binder, the Ka [10] was 2e+08 M⁻¹, the Kd [11] was 4 nM and the kon [12] was 500000 M⁻¹ s⁻¹. For the same binder, the Kd (human IL-17F [13]) was 0.143 nM and 0.126 nM, the koff (human IL-17F [13]) was 0.000261 s⁻¹ and 0.000315 s⁻¹ and the kon (human IL-17F [13]) was 1.82e+06 M⁻¹ s⁻¹ and 2.49e+06 M⁻¹ s⁻¹. The Kd (human IL-17A [14]) was 0.0439 nM and 0.0382 nM, the koff (human IL-17A [14]) was 6.22e-05 s⁻¹ and 9.95e-05 s⁻¹ and the kon (human IL-17A [14]) was 1.42e+06 M⁻¹ s⁻¹ and 2.61e+06 M⁻¹ s⁻¹. For the same binder, the “IC50, huIL-17F(50 ng/ml) induction of G-CSF in SAEC” value (human IL-17F [15]) was 1.2 µg/mL, the “IC50, huIL-17F(50 ng/ml) induction of IL-8 in SAEC” value (human IL-17F [15]) was 0.57 µg/mL and the “IC50, huIL-17A(10 ng/ml) induction of G-CSF in SAEC” value (human IL-17A [16]) was 0.14 µg/mL. For the same binder, the “IC50, huIL-17A(10 ng/ml) induction of IL-8 in SAEC” value (human IL-17A [16]) was 0.03 µg/mL and the koff [17] was 0.002 s⁻¹.
